According to the DeepSol protein solubility set:

Experiment: soluble on expression in E. coli; label from the status in PepcDB or PDB records

Sequence	soluble on expression in E. coli
MSLRSTKTIHVISCHAEGEVGDVIVGGVAPPPGETLWEQRSFIARDQTLRNFVLNEPRGGVFRHVNLLVPPRHPEADAAFIIMEPEDTPPMSGSNSICVSTVLLDGGIVPMIEPITEMVLEAPGGLVRVKAECRNGKAERIFVQNVTSFADKLSVPLDVEGIGTLTVDTAYGGDSFVVVDAEALGFAIVEDEAKDIARLGVRITNAANEQLGFSHPENPDWNHISFCAFCGPLSQTPTGLTGRSAVAIQPGKVDRSPTGTAVSARMALMAARGQMTIGDTFEAVSIIGSSFTGRIVSQQMAGDRPGIVPEISGRGWITGIHQHMLDPSDPWPGGYKLSDTWGAEGHHHHHH	soluble
MSLRTIKNLRDMIEQSSKLFANKDAFRVKTKDNSYRGITFAEFKNDIDAFGTALLDLLGTEKGFVAVIGENRYEWCVTYLATINGVGVVIPLDKELPLPELENLLKQSNANAIVYSGKFHDAIKEMSSRLSNIKYFINMNTNEHEDDKFLSFWVLLEKGKKLLESGKKDYLNAPIDENAMSAMIFTSGTTGQAKAVMLSHKNICSNMMAVSASVYMDSTDSVLSILPLHHTYECTAGFLTMIYNGATITFNEGLKYIGKNLKEAQPTILILVPLILESMYNKIWEQASKDKSLKFKLKAGLFISNLLYKVFKIDIRRKLFKSVIDNVGGKLRLVISGAAALDPEVAKGFEAMGIKVLQGYGLTEASPIVAVNRDKSYRHDSVGLPLPGLDVEIINPDKEGFGEIIVKGDSVMLGYYNNDDATKAVLKDGWLYTGDLGRMDEKGFIYITGRKKNIIVTKTGKNIFPEEVEAYLNKSPYIKESLVSGRENDKNDETIVVAQIVPDMDAIKAKLKTDTVPSPEEVYKLIKAEIRAINKNMPVYKRVVDITIRENEFAKTSSKKIKRYLEKTNEGHHHHHH	soluble
MSLRTLYSGGLVFDGIGNLLEQHGVLVDGQKICRIAPLGEFEGFSDEKVDTSDGTLLPGLIDCHVHIVYSGEADPKSHLLKLRPGQIVINALENAKKTLSNGITSIRDLGGRDFLEFAVRDACNSGRQTGPTIRAAGRMICMTGGHGNAFGRVADGPDEVLKAVREQIHAGSDVIKLMATGGVMTPGVNPEDAHYSEEELRVGVNEGHRFNRKCASHAQGSAGILNAVNAGMDSIEHGIFMTQESLESMLKHQTYLVPTLSAVNNIYLNRDNGIPEFIVEKTLRIRERHHQSIKMFYKAGGKMAMGTDAGTPFNLHGENTNELQYMVDLGVSNLDVLKISTVNAADLMDLEDRGIIQEGFYADFLIVNGDPVKDISKVADRKNHRIVVKNGVHINEGHHHHHH	soluble
MSLSAPRITRVETAAIRAVGPSVLVRVWAGDEHGLGECYPSAPAAGIHHIVMNMEEQLLGEDPRDVERLYEKMRRWNIFTGGQAGAVITALSGIETALWDLAGKLQGVPVYRLLGGAFRRRVRLYADCNAGTVDAAAHHIEGGLFEEGSNEEYIAVAREAVERGFDAIKLDVDDITGPLHRDFWNGAISPREHEAMVARVAAVREAVGPEVEVAIDMHGRFDIPSSIRFARAMEPFGLLWLEEPTPPENLDALAEVRRSTSTPICAGENVYTRFDFRELFAKRAVDYVMPDVAKCGGLAEAKRIANLAELDYIPFAPHNVSSPVGTVAAAHVCAAVSNFAVLEWHAIDMPHWEDFVRYPGGPVIREGHIELTEEPGLGLELDEEAAFEHRHEKGGVPFFGRTEGHHHHHH	soluble
MSLSASFTGAGFFKGGKTLDFSKLSYLSNSFMSLPSTVRNKQASQTAKNKSMIEFIEKIQSKNIVVRQEERGIVISLAADAFFDSASADVKLEENRDSIQKIASFIGFLSPRGYNFKIEGHTDNIDTDVNGPWKSNWELSAARSVNMLEHILNYLDQSDVKRIENNFEVSGFGGSRPIATDDTPEGRAYNRRIDILITTDASLSFPKEGHHHHHH	soluble
MSLSDAVNKHPKSPNPQLCAVTLLGNLVATPDIRYRANPATAVTEIVLATSSKWLDKITNKYKEWTSYHHVKVEGELVELALLNANKGDIILLHGYLSNIKPKSTDKSTNHLGIVHANFVQKFEKGYTQAINQIHCSAQLTSKPKLMLTEQNKNITQANIVINQHIYNTDKQAWQTISVERAIHVWGKQAQYLAEHGDIGDELMLEGKLSYTSGVSKDQFIEVKNVHLFKGTLEHHHHHH	soluble
MSLSDDTSVVQDYIKSRDALVVLEQKMPLRDAFGGRYADIFSRFPGVIGRDGFEYFYRYFKNHVAVDVGTATAVTTLRVQAYTSKDAYLINKYLLEMAEKRVNELNDRSRQDSLRYALAEVAGAEAKVKAASTALSKFRSKASLFDPDRQSNIQLELVAKLRGELIAKQAQLSQLRMLSPQNPQIPSLAASIGALEASIASEKGGVAGEKNSLSDRSVEYQRLALEQSFGEKLLASALTSLEQARADAERKQIYLERVAEPNEPDVAMEPKREGHHHHHH	soluble
MSLSDGNITFAYSYPIKAFEKFLGYYDRENRIAFNPSISMRTDFSFCLAACRYRKNGKTDTVVLDGYADNKYYKKAKFALDKFRSEYSINGSFDFYIKRYRRYQKAKGLSESSAVAAAVSRALISNVFGDDAAKDDIFVSRYARLVSGSGTRAAHDGISMWLSYPGMDSRDCVAFKVGKSNENLNYGVFPKYSDVATDNAHSIAVNSVFYGTWVSEKFSNVKRLISDHFDINDLLKIGENDMLRLNSILMSGGLIIQTPDSLRILKEILKFKSKNEGFYFTADTGPSIAIFSFDRSLIDEFRENVNDEYIEGSYDFKGYNNEGHHHHHH	not soluble
MSLSDPIKIGFLAPLTGPVSSWGLPGLHGCRLWEDWLNRAGGILVGGRRYPVSIVPFDCGYDPERAMEGARHLVHTEQVKLLMMLGGDTFTPLRGFLTANKVLTSTLLPSDLSPDTRYLIAPSEVHPIYNVTGVDWLARNRPELRRVAMCSQKDALGLPSIATYRAAFEAAGVPVVKEVEYDPEMTDVATIVQPMLDAQPDVLCWCTSYTPMVHAMTEYAHAKGFSGQILSCTLDNYQRLVARTSAEFMEGALFQFPDFDDPKLARKAFFFNRPSTFFKEYNARYPGNWSAVSWEYVAILDIWHAAVEKVASVHPVSVLATMKQMDPVTHAFGPARWWGEGHHHHHH	not soluble
MSLSDPIKITFSVEGLSHPFLVKQKQLAEETGKRLGAQVNVISANDDVNQQFNDIQTAIAQGTDALMMMPATTQGLDAVLKQAEAAQIPYFFSQKGMLGVEPASQVLAPYSNEGQQLGEWVVEHYKGQEDVKVAIISGIPGDQSSDARVNSFLLPLLRSCNFNVVANQPGNYRRGDSEKAAQNMLAANPDIDLLFGANDEAALGGIAALKSSGRQGVDVVGLDGQTDMFAAIQSGQALATVIHKPTAGIVVEEAVDYLRGKPVPEYRVLDEDLVTKETIETGAQPAEGHHHHHH	soluble
MSLSDRDSTLSRLKSAGENGDVEAQYALGLMYLYGEILDVDYQQAKIWYEKAADQNDPRAQAKLGVMYANGLGVNQDYQQSKLWYEKAAAQNDVDAQFLLGEMYDDGLGVSQDYQHAKMWYEKAAAQNDERAQVNLAVLYAKGNGVEQDYRQAKSWYEKAAAQNSPDAQFALGILYANANGVEQDYQQAKDWYEKAAEQNFANAQFNLGMLYYKGEGVKQNFRQAREWFEKAASQNQPNAQYNLGQIYYYGQGVTQSYRQAKDWFEKAAEKGHVDAQYNLGVIYENGEGVSQNYQQAKAWYEKAASQNDAQAQFELGVMNELGQGESIDLKQARHYYERSCNNGLKKGCERLKELLYKEGHHHHHH	soluble
MSLSDTTKTASTRTSVTDQEALDFHAQGRPGKLEITPTKPMATQRDLSLAYSPGVAVPVKAIAENPATAYDYTTRGNMVAVISNGTAILGLGNLGALASKPVMEGKSVLFKRFADVDSIDLEVDTEDADEFINCVRYLGPSFGGINLEDIKAPECFIIESRLRELMDIPVFHDDQHGTAIIAAAGLINAIELTGRDFKTTKLVCNGAGAAAIACMDLIKAMGFNPENITLCDTKGVIYQGRTEGMNQWKSAHAVKTDRRTLTEAMNGADVVFGLSQKGAFTEEMIRSMAPKPIIFAMANPDPEITPEEVSRIRDDAIMATGRSDYPNQVNNVLGFPYIFRGALDVRARQINDAMKIAAAQALADLAREDVPDDVAAAYQGNRPRFGSQYIIPVPFDPRLISAIPVAVAKAAIETGVAQREIPDLDAYARELSARRDPMASTTQRLYERVRRSPKRVVFAEAEEEQVMRAAISFTAQGLGTAILLGRDDIIKANAERAGIDLDRANIEITNARLSSRVDAYVDYLYARLQRGGFLLRDVQRLIHNDRNHFAACMVAMGDADAVVTGVTRNYSTALEDIRRCINTKPGHRVIGVSLVVSRNRTVFVADTAVHDMPNAEDLADIAEEAAHLARRFGYEPRVAMLAYSTFGQPVGERSDKVREAVKILDKRNVNFEVDGEMSADVALNHQRMQSQYPFARLSGAANVLVMPAIHSASISTKMLQELGGATVIGPLLVGLDKSVQITSMGAKDSDIVNMAAIAAYNAGREGHHHHHH	not soluble
MSLSEEDLIENPLPENLLDKVIEGDAREVLKKIPDCSIHLMVTSPPYNVGKEYDEDMTLDEYLEFIEEIMKEVYRVLVWGGRACFNVANLGRKPYIPLHAYLIHLFEKIGFLIRGEIIWDKGEAVSGSSTAWGSWMSPVNPVLRDQHEYIIVMSKGDLKRRKPSDREAKSTITREEFLEFTRSVWKFPPESAKRVGHPAPFPEELPYRCIQLYTFKGDVVLDPFAGVGTTCVAAVKTGRHFVGIEINPEYVKKAEERVKDILSKPTLFEDHEGHHHHHH	soluble
MSLSELARRLNQCKKPVGDQGKVVVDDMNERHYELTGWGLDKIKIDKAYKMLDIGCGGGRTVNRLSKAAEEGEVYGIDYSSDCVRWASEYNKELIKEGRVHISEASVEKLPFEDNKFDVVTAVETIYFWPNVEENIKEVNRVLKKGGKFIIINEIYDDDKFRERNNEFAKNSNMKIYSPEKLKSLLKNAGYLNVEMEIKEENNWICYVSEKEGHHHHHH	soluble
MSLSFKGFKVVMLILLSTQSYASKLASSIVCDSTIENPCIVQDSKTQFSPVIRYREVASIADVYGGNITGINKFHLSGSEQPSEKGWEAIAESISRKMGAETKKVIVLDLRQESHGYLNGRAITLVSAYNWINLGKSNSQSTLDQENWLAGLRSRKIVNGVLTVPQYVAKQYSQGKSMVVSTVKNEEYYVYKKGFDYYRIFISDHRAPLDSEVDALVALIKNNPEDTWYHVHCRGGKGRTTTVFAMFDMLKNADKVSFEEIIARQASIPPFYNLMVTNREIPELTPYYEQRLQFLIHFYEFARQSLMGYSGTWSEWKKLNEGHHHHHH	soluble
MSLSFTGLEGTRVLVADDNFTSRAILKEVLESLRFDVTLAESGEEAVDLVQKTAEPFKVVLLDWRMPGLDGLACARHIRQLDLPVRPTILIITAYGREEVLGEIPSEIIDGVLLKPVARSLLLNTILDALPEYSSRPEQESRIIQIDTAQLRQELADTSVLVVEDNKINRQIAKELLEGVGVRVTLAGDGLEALALVENYDFDLIFMDIQMPRMDGLEACRRIRQLQHKKQPPVVAMTAHALAGDRETSLRAGMNDHITKPIDPDELYAALANWIKRNHAEGHHHHHH	soluble
MSLSHSAEDSRRRELGAFLRSRRERLTPSATGISTGLRRRTPGLRREEVAMIAGVGTTWYTWLEQGRDVRPSVEVLTALSGALRLDAAEKRHLFTLAGRQLPERRRIAAGKVEGPLLHMLQSLVLQPAYVVGPRWDVLAWNDAAVAIFGDYGQLEGDARNIIHGVFTDPHRRHLLADWEQVARATLAAFRAESARYVGDPDFERLIALMMRSSPEFREWWPQRDVVHRLSGMKHLRHPTAGAMVFEHMSLSIDDGSDMKLIVYTPLAEQNSIAKLQSLLDAILRKEDRLKGIITITTDPNSSSVDKLAAALEHHHHHH	soluble
